The results in this text go back to PMC8686473.

The target of experiment [1] is Etanercept (UniProt P20333). Nature of the experiment: SEC-MALS; formulation after forced degradation (stirring at 600 rpm, 60°C, 2 h); BioResolve SEC mAb column, 50 mM phosphate buffer pH 7, 200 mM KCl, 30°C, 0.5 ml/min. (In general: In gel filtration, larger molecules generally elute earlier.)
Experiment [2] concerns the target Etanercept (UniProt P20333). As to the kind of experiment: SEC-MALS; untreated formulation diluted 25 times in water to 2 mg/ml; BioResolve SEC mAb column, 50 mM phosphate buffer pH 7, 200 mM KCl, 30°C, 0.5 ml/min.

As a reminder, the stoichiometry N is a count of units in the complex or per binding partner. In the case of “Etanercept (from UniProt P20333 23-257) (Fc fusion)”, the stoichiometry N came to 23 in the experiment with Etanercept [1] and 3 with Etanercept [2].
